In article doi:10.1101/2024.09.28.615595:

Molecular target: CsrA (Escherichia coli (K-12 MG1655?)) (UniProt P69913)
Assay: EMSA
Conditions: binding buffer, pH and temperature not given

Sequence of CsrA (Escherichia coli (K-12 MG1655?)) (P69913 whole entry): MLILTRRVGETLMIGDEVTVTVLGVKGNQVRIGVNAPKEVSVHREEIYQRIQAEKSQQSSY

Sequence | binding | K half [nM]
GGGAGGUAAUUUUGGUUUUCCCGGCCAAAAAUGGACAAUAACCACCAGGAAAAGGAGACGGAAUGCAUCACGCCACCCCGCUUAUCACCACCAUUGUUGGCGGCCUUGUGCUCGCCUUUAUCCUCGGCAUGCUGGCCAAUAAACUACGUAUUUCUCCUCUGG [ybaL leader] | binds | 
GGGAGAACGGUUAACUUAACGGAUGUUUCGCGGUGUGGGUGAGCAUGAUGGUUCACCGGCAUCUCAAUUCUCAUUUAAACGUACCUGCAGCGAAUGAAUACUGAAGCCACGCACGACCAAAAUGAAGCACUUACUACCGGCGCUCGCCUGCGUAAUGCUCGCGAACAACUAGGACUUAGUCAGCAGGCCGUUG [rodZ leader] | binds | 
GGGAGAUUUGUGUUUAUCCCGAUUUUCGCGAUCGCAGCCGGAGUGGCGCAAUCCCUGCAAUACUUAAAUCGGUAUCAUGUGAUACGCGAGCCUCCGGAGCAUAUUUUGAACAGGUUACCUUCGAGCGCAUCGGCUUUAGCGUGCAGCGCCCACGCCCUGAAUCUCAUUGAGAAGCGAACGCUGGAUCAUGAGGAGAUGAAAGCAC [patA leader] | binds | 
GGGAUAAUGCGCUUUCUUUAGCCGUUAAUAUCCACCGGCAUGGCUGCGCGCCGUGCCGGUUCCUUCUUGCUUGGCGUCACUCUUUGAAGACGCAUUCUGCAGUUUACGAUGACUACUAUUGUUGACAGCAAUCUGCCGGUUGCCCGCCCGUCAUGGGAUCAUUCUCGUCUGGAAUCACGCAUUGUGCAUCUCGGUUGCGGGGCGUUUCGCAUGC [uxuB 5' UTR mutant (UPSTR mut)] |  | 144
GGGAGGUUUGCUUUUAGGUUAGCGACCGAAAAUAUAAAUGAUAAUCAUUAUUAAAGCCUUUAUCAUUUUGUGGAGGAUGAUAUGGAUACGUCACUGGCUGAGGAAGUACAGCAGACCAUGGCAACACUUGCGCCCAAUCGCUUUUUCUUUAUGUCGCCGUACCGCAGUUUUACGACGUCAG [entC leader] | binds | 
